In paper PMC5015938, “A Split-Ubiquitin Based Strategy Selecting for Protein Complex-Interfering Mutations” (G3: Genes|Genomes|Genetics, 2016):

Experiments:
[1] = biological target: T1, PB_(Cdc24)(D833G) (Saccharomyces cerevisiae, UniProt P11433 668-854, D833G); assay: SPR; Biacore X100; PB_(Bem1)-SNAP labelled with BG-Biotin and captured on a CM5 chip coated with anti-biotin antibody; PB_(Cdc24) as analyte; HBSEP (10 mM HEPES, 150 mM NaCl, 3 mM EDTA, 0.05% Tween 20, pH 7.4); details: both partners purified
T1 construct: also called D833G mutant; source: E. coli BL21DE3, purified (IMAC, optional size exclusion chromatography)
T1 sequence (looked up): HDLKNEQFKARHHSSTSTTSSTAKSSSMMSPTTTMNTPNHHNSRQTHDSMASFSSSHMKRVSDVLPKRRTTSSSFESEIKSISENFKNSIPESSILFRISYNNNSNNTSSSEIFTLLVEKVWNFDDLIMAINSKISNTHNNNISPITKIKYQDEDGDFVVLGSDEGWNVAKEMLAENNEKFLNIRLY

[2] = biological target: T2, PB_(Cdc24) (Saccharomyces cerevisiae, UniProt P11433 668-854); assay: as above; details: both partners purified
T2 construct: also called Cdc24 PB domain; source: E. coli BL21DE3, purified (IMAC, optional size exclusion chromatography)
T2 sequence (looked up): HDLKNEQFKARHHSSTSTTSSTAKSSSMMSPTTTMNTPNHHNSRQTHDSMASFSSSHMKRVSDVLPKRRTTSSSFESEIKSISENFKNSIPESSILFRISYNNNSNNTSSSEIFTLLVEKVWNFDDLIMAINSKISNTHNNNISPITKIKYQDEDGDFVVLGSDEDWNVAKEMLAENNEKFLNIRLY

B1: PB_(Bem1)-SNAP (domain or fragment, Saccharomyces cerevisiae, UniProt P29366 431-551, looked up)
chain: ASQTSNFASTNQDNTLTGEDLKLNKKLSDLSLSGSKQAPAQSTSGLKTTKIKFYYKDDIFALMLKGDTTYKELRSKIAPRIDTDNFKLQTKLFDGSGEEIKTDSQVSNIIQAKLKISVHDI
modifications: BG-Biotin covalently on the SNAP tag
notes: Bem1, S. cerevisiae, PB domain, residues 431-551; also called Bem1 PB domain; source: E. coli BL21DE3, purified (IMAC, optional size exclusion chromatography)
B1 was tested, and the Kd [1] was over 3200 nM and the Kd [2] was 21 nM.
